These are literature values, as cited in paper PMC5368065.

For series [1], the target named is MLL1 MBM1-MBM2 (Homo sapiens) (UniProt Q03164).
Series [2] deals with MLL1 (Homo sapiens) (UniProt Q03164).

Take Menin (from UniProt O00255): the Kd in series [1] and in series [2] was 10 nM throughout.

For orientation: Kd means the free concentration of one partner at which half of the binding sites on the other are occupied at equilibrium, for simple one-to-one binding.
